# Measurements from ChEMBL document CHEMBL1145519, “Exploitation of structural and regulatory diversity in glutamate racemases” (Nature, 2007).
# Substitutions are numbered along the chain they refer to. Names and notes keep the numbering of the source.
# B1: Glutamate racemase (Helicobacter pylori (strain ATCC 700392 / 26695) (Campylobacterpylori)), P56068 (protein)
# chain: MKIGVFDSGVGGFSVLKSLLKAQLFDEIIYYGDSARVPYGTKDPTTIKQFGLEALDFFKPHQIKLLIVACNTASALALEEMQKHSKIPVVGVIEPSILAIKRQVKDKNAPILVLGTKATIQSNAYDNALKQQGYLNVSHLATSLFVPLIEESILEGELLETCMRYYFTPLEILPEVVILGCTHFPLIAQKIEGYFMEHFALSTPPLLIHSGDAIVEYLQQNYALKKNACAFPKVEFHASGDVVWLEKQAKEWLKL
# B2: Glutamate racemase (Helicobacter pylori (strain ATCC 700392 / 26695) (Campylobacterpylori)), P56068 E151K (protein)
# chain: B1 chain with E151K
# B3: Glutamate racemase (Helicobacter pylori (strain ATCC 700392 / 26695) (Campylobacterpylori)), P56068 A75T (protein)
# chain: B1 chain with A75T
# B4: Glutamate racemase (Enterococcus faecalis (strain ATCC 700802 / V583)), Q836J0 (protein)
# chain: MSNQEAIGLIDSGVGGLTVLKEALKQLPNERLIYLGDTARCPYGPRPAEQVVQFTWEMADFLLKKRIKMLVIACNTATAVALEEIKAALPIPVVGVILPGARAAVKVTKNNKIGVIGTLGTIKSASYEIAIKSKAPTIEVTSLDCPKFVPIVESNQYRSSVAKKIVAETLQALQLKGLDTLILGCTHYPLLRPVIQNVMGSHVTLIDSGAETVGEVSMLLDYFDIAHTPEAPTQPHEFYTTGSAKMFEEIASSWLGIENLKAQQIHLGGNEND
# Legend:
# [1] = substrate: N[C@@H](CCC(=O)O)C(=O)O; settings: Helicobacter pylori
# Description: Activity of Helicobacter pylori MurI
# [2] = substrate: N[C@H](CCC(=O)O)C(=O)O; settings: Helicobacter pylori
# Description: Activity of Helicobacter pylori MurI
# [3] = substrate: N[C@@H](CCC(=O)O)C(=O)O; settings: Helicobacter pylori; remark: listed apart in the source
# Description: (§2) Activity of Helicobacter pylori MurI E151K mutant
# [4] = substrate: N[C@H](CCC(=O)O)C(=O)O; settings: Helicobacter pylori; remark: listed apart in the source
# Description: as §2
# [5] = substrate: N[C@@H](CCC(=O)O)C(=O)O; settings: Helicobacter pylori; remark: listed apart in the source
# Description: (§3) Activity of Helicobacter pylori MurI A75T mutant
# [6] = substrate: N[C@H](CCC(=O)O)C(=O)O; settings: Helicobacter pylori; remark: listed apart in the source
# Description: as §3
# [7] = substrate: N[C@@H](CCC(=O)O)C(=O)O; test: (§1) Activity of Enterococcus faecalis MurI
# [8] = substrate: N[C@H](CCC(=O)O)C(=O)O; test: as §1
protein,measurement,setting,value
B1,Km,[1],740 µM
same,kcat,[1],63 min⁻¹
same,Km,[2],63 µM
same,kcat,[2],12 min⁻¹
B2,Km,[3],7.36 mM
same,kcat,[3],136 min⁻¹
same,Km,[4],282 µM
same,kcat,[4],5 min⁻¹
B3,Km,[5],7.43 mM
same,kcat,[5],107 min⁻¹
same,Km,[6],275 µM
same,kcat,[6],3.9 min⁻¹
B4,Km,[7],1200 µM
same,kcat,[7],1500 min⁻¹
same,Km,[8],250 µM
same,kcat,[8],704 min⁻¹
